Data set [1] concerns the target T1, HpfX (EgHpfX), 3-sulfopropionaldehyde dehydrogenase (Enterococcus gilvus, UniProt R2XKF7).
T1 construct: gene I592_01329
T1 sequence (R2XKF7 1-455): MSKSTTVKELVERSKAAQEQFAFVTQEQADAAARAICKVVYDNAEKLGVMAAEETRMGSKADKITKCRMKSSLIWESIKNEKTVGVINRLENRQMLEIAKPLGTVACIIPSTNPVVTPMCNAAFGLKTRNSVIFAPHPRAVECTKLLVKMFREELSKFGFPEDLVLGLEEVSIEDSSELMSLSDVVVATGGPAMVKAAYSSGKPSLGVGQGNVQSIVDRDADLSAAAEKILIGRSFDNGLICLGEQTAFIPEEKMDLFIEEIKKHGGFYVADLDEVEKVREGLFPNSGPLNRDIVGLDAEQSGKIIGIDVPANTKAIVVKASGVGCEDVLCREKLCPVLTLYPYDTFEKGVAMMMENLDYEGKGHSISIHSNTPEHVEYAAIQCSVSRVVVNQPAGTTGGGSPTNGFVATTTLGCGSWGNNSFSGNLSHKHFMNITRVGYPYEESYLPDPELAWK
As to the kind of experiment: LC-MS of product 3-SPC, HpfD-coupled. It is filed as biochemical. The note with it: 3-SPA made in situ by HpfD from 40 mM 3-HPS; 4 mM NAD+, 0.5 mM CoA, CAPSO pH 9.5, RT.

For data set [2], the system named is NC(=O)c1ccc[n+]([C@@H]2O[C@H](COP(=O)(O)OP(=O)(O)OC[C@H]3O[C@@H](n4cnc5c(N)ncnc54)[C@H](O)[C@@H]3O)[C@@H](O)[C@H]2O)c1. As to the kind of experiment: purified protein. The note with it: apparent, oxidation direction, 40 mM 3-HPS, 50 mM CAPSO pH 9.5, RT.
For a further data set, the system named is O=S(=O)(O)CCCO. As to the kind of experiment: purified protein. Particulars: apparent, oxidation direction, 4 mM NAD+, 50 mM CAPSO pH 9.5, RT.
Data set [3] concerns the target T1, HpfX (EgHpfX), 3-sulfopropionaldehyde dehydrogenase. As to the kind of experiment: spectrophotometric NADH consumption, A340, HpfYZ-coupled. It is filed as biochemical. Particulars: reduction of 3-SPC made in situ by HpfYZ; 0.4 mM NADH, 10 mM 3-SP, 2 mM ATP, 0.4 mM CoA, 10 mM MgCl2, Tris pH 7.5, RT.
Substrate in data set [4]: CC(C)(COP(=O)(O)OP(=O)(O)OC[C@H]1O[C@@H](n2cnc3c(N)ncnc32)[C@H](O)[C@@H]1OP(=O)(O)O)[C@@H](O)C(=O)NCCC(=O)NCCS
The data set is described as follows: PK-LDH coupled spectrophotometric assay, A340. The data set is classed as biochemical, Enterococcus gilvus. The note with it: apparent, 2 mM 3-SP, 2 mM ATP, 10 mM MgCl2, 50 mM KCl, Tris-HCl pH 7.5, RT.

Substrate in data set [5]: Nc1ncnc2c1ncn2[C@@H]1O[C@H](COP(=O)(O)OP(=O)(O)OP(=O)(O)O)[C@@H](O)[C@H]1O
As to the kind of experiment: PK-LDH coupled spectrophotometric assay, A340. Particulars: apparent, 2 mM 3-SP, 0.4 mM CoA, 10 mM MgCl2, 50 mM KCl, Tris-HCl pH 7.5, RT. It is filed as biochemical, Enterococcus gilvus.

Substrate in data set [6]: O=C(O)CCS(=O)(=O)O
The data set is described as follows: PK-LDH coupled spectrophotometric assay, A340. It is filed as biochemical, Enterococcus gilvus. The note with it: apparent, 2 mM ATP, 0.4 mM CoA, 10 mM MgCl2, 50 mM KCl, Tris-HCl pH 7.5, RT.

From article PMC11489063, “Study of sulfoglycolysis in Enterococcus gilvus reveals a widespread bifurcated pathway for dihydroxypropanesulfonate degradation” (iScience, 2024) come the findings set out here.

With `O=CCCS(=O)(=O)O` [3-SPA], the “LC-MS of product 3-SPC, HpfD-coupled” value in data set [1] is “The ability of the HpfX to oxidize 3-SPA into 3-SPC was ascertained”.
In the case of “HpfD (EgHpfD), 3-sulfopropionaldehyde reductase (Enterococcus gilvus ATCC BAA-350)”, in data set [2], the Km – broadly, the concentration of substrate that gives half-maximal velocity – worked out at 640 ± 90 µM and the kcat (usually the maximal rate divided by the concentration of active sites) was found to be 20.87 ± 0.84 s⁻¹. In addition, in the data set with O=S(=O)(O)CCCO, the Michaelis constant (Km) was 4970 ± 570 µM and the kcat is 15.30 ± 0.37 s⁻¹.
For the molecule `NC(=O)C1=CN([C@@H]2O[C@H](COP(=O)(O)OP(=O)(O)OC[C@H]3O[C@@H](n4cnc5c(N)ncnc54)[C@H](O)[C@@H]3O)[C@@H](O)[C@H]2O)C=CC1` [NADH], in data set [3], the “spectrophotometric NADH consumption, A340, HpfYZ-coupled” value is “indicating reduction of 3-SPC accompanied by the consumption of NADH”.

B1: HpfYZ (EgHpfY / EgHpfZ), 3-sulfopropionate-CoA ligase (Enterococcus gilvus ATCC BAA-350) (protein)
chain 1: MDYLEIEGKAQLERFGIPINESILLTGDNIPEDIPYPCVLKGQILSGKRGKAGAVRVVKTRAELIEAKEIIEQIKINDQVMEGVIACGFLPIEEEYYLGMTLDVKNRAMIMLFTPFGGMDIEELAETDPEKLLRFDCTEGFNAEKFKKASTIFELPEKRLNLVVDIAEKLSEACFALDATTIEINPLALLKDESLMAIDAKLVIDDNALYRQGDYTILPRTVQEKSLQEIEAEQYDLTYVEVDPKGNIGTMAGGAGIGMATMDTVFHYGGRVNNFLDLGGGVTSEKTYQAMRILLENENTDYILINIFGGINNCADMAEGITRAYKESGISKTVVVKSRGFNQEQGWSMYKELGFPQAKYGTTDEAVQILLALKGAK
chain 2: MSILINQETELLIIGITGKQGRIHAKRTIESGAKLRAGVAPGKNGEMVEGIPVFESVEDARKEFPQIRAAMLLTPPRFVKDAAIQALQSGIELLVIITEFVPVLDTLEIVTKAKKLGAKVVGPNTIGVIAPGKSKLGIMPADIYGKGRIGIISRSGTLTHETASNLTFKGYGLSTCVGIGGDSIVGMDHADVLELFANDDETDAIVLIGEIGGTSEEMAAAKIKELNIQKPICAYIAGMHAPENKKMGHAGAIVSGNMGTVKSKVEALEDAGVTVCPTLGKIVEFMEKTNSQTNGKLRSLEPKVDASILQT
notes: N-terminal His6-TEV tagged HpfY co-expressed with untagged HpfZ in E. coli BL21(DE3), co-purified 1:1 (predicted heterodimer); codon-optimized genes
Regarding B1, the Km is 110 ± 30 µM in data set [4], 180 ± 140 µM in data set [5] and 510 ± 70 µM in data set [6]. The turnover number (kcat) worked out at 0.45 ± 0.04 s⁻¹ in data set [4], 0.33 ± 0.01 s⁻¹ in data set [5] and 0.38 ± 0.01 s⁻¹ in data set [6].
